Experimental data taken from the supplement of paper PMC12764529.
± gives the half width of the 95% confidence interval.

What was measured:
[1] = folding stability dG unfold from trypsin proteolysis; higher = more stable
Summary of the method: (§1)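 Unfolding free energy was derived, per protease or combined, against a sequence-predicted unfolded-state K50 and a shared folded-state K50, starting from K50 inferred by Bayesian fitting of sequencing counts. Digestion with trypsin and chymotrypsin was carried out on designed mini-proteins under 80 residues without cysteine in a PA-tagged cDNA display construct. Only designs with AlphaFold2 dimer inter-PAE above 15 were kept.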

[2] = folding stability dG unfold (combined trypsin and chymotrypsin); higher = more stable
Summary of the method: as §1

[3] = folding stability dG unfold from chymotrypsin proteolysis; higher = more stable
Summary of the method: as §1

Sequence	folding stability dG unfold [1] [kcal/mol]	folding stability dG unfold [2] [kcal/mol]	folding stability dG unfold [3] [kcal/mol]
SMKPGEVKELTLKLTIPVKPGEITVTLVLKLEDGRYVVVESRATVKEDGTIEIEVKIRVYDPKTNEWKELSA [r9_349_TrROS_Hall]	2.37 ± 0.19	2.89 ± 0.35	3.28 ± 0.18
SAGGSAGGSAGGSKEIKVEVEEKDGKLTVTVTFPDGSKVEIEGMSAEEVEKLVKELAKKSAGGSAGGSAGGS [r4_383_TrROS_Hall]	1.4 ± 0.061	2.06 ± 0.061	2.36 ± 0.1
SAGGKTIYFPISEARNFLKEAIDNGLDNIRIEVFNGDKPREIDIPPGNLDDLIDNIPPNSWVQIEPKSAGGS [r16_636_TrROS]	-0.645 ± 0.095	0.221 ± 0.072	0.536 ± 0.089
SAGGSQLDEYRKKVEEAIEKAKAEGKPVEKIELTGSEEVAKEVREWLEEQGIPKSVKVTVTPPAINESAGGS [r16_164_JUSTAS]	0.433 ± 0.04	0.83 ± 0.077	1.13 ± 0.015
SAGGLEILEVDPDTYTITIRFGDRPLEFTVPPDYPPTITITEDPDGSVTLTIEVPDRTETFTIPRELVESAG [r5_500_TrMRF]	1.18 ± 0.021	1.61 ± 0.083	1.84 ± 0.09
SAGGSAGGSKYYRVRFKEEIEITLENGEKLKIKKGDVIVVPSKEDLDRLKALFPNLEVEVEPVSAGGSAGGS [r12_987_TrROS_Hall]	3.16 ± 0.1	3.7 ± 0.099	3.91 ± 0.043
SEVVFTLKDKPSPEELLKALAAVPGFSLETILKNTKVSPGKTGPKLTIKKEDFEKLEKENPEALEIIRSGSA [r9_160_TrMRF]	1.2 ± 0.026	1.09 ± 0.089	1.01 ± 0.11
SAGGSKELKPGDIITFPKSVSEEEIKEKVKELMEKYGIKGIISIEKKSPNSYIVKIEYPDGNPLAISAGGSA [r2_168_JUSTAS]	2.1 ± 0.074	1.72 ± 0.15	1.34 ± 0.081
SAGGMTEELEITTPDNYKIKITKTLNPNTTKPTYTVKIYEKKSGKVLLEKEFSSLEEAEEFIKNGYGSAGGS [r8_450_TrMRF]	4.73 ± 0.18	4.65 ± 0.069	4.596 ± 0.042
SAGGSGIEAAILEAVEKGLNPVELTFRLPEDGKLVVLKVEVLDVLDGGAIVKVEMEVYDPENPKKISAGGSA [r2_420_TrMRF]	1.06 ± 0.089	1.83 ± 0.1	2.14 ± 0.063
SAMKVEIVEVKKNEDGSEEITIKIVVPDDKDMTPEELAALLKKEFGVDEVKVEVVDENGYKVITITIKRSAG [r14_228_TrROS_Hall]	4.03 ± 0.26	3.9 ± 0.24	3.55 ± 0.15
SAGGSAGGSAGGDKDDKPPVRTVTVMHMFFDENGWLVKFDITFTANGQIEIDWGPVPLPSAGGSAGGSAGGS [r10_682_TrROS]	2.96 ± 0.3	3.52 ± 0.5	3.8 ± 0.42
SAGMKIVEIEKKEDGTVKIKIEVNGEEKEIEVKVGETITLPDGSEIEVLEDGTIKVRPLPEPEVEEEESAGG [r19_17_TrROS_Hall]	3.24 ± 0.39	2.64 ± 0.26	2 ± 0.17
SMAKVTGYPDIFLVTIYKDGEEKTIPVNFEELVELLKKGVKKVEFTTDNPEFAEKFYKLVKSLGVPVNLKSA [r9_810_TrMRF]	1.44 ± 0.016	2.33 ± 0.044	2.7 ± 0.04
SAGGMPVTVEITVDLVLDPRYRPRPVYPPGETWREPERRVLPVTFTATFGDPEDAERAAVELLRALGVSAGG [r13_35_TrMRF]	0.866 ± 0.041	1.45 ± 0.062	1.73 ± 0.032
SAGGSAGGSAGMKIEKNKDGKLRIIIYNKNGKKVKEIEMSVEEAKKLAEKNNFEIVKIEPSAGGSAGGSAGG [r11_521_TrROS_Hall]	1.02 ± 0.093	1.09 ± 0.21	0.966 ± 0.41
SAGGSAGGDIEVRPVGVVPTPDGRLVRVEEVTFPETGRTLLVAVDLEPGRVYVFDPETGEWREESAGGSAGG [r6_114_TrMRF]	0.502 ± 0.091	1.41 ± 0.075	1.76 ± 0.02
